Test results as given in the Immune Epitope Database (IEDB).

Legend:
[1] = biological target: HLA-A*80:01; experiment: IEDB peptide-MHC binding, purified MHC/direct/fluorescence; filed as Kd, often an IC50 or EC50 that approximates it; ≥ and ≤ were set here for values at or beyond the usual limits of such assays; conditions: source organism: West Nile virus
[2] = biological target: HLA-A*01:01; experiment: as above
[3] = biological target: HLA-A*26:02; experiment: as above
[4] = biological target: HLA-A*26:01; experiment: as above
[5] = biological target: HLA-B*48:01; experiment: as above; conditions: source organism: Brucella abortus
[6] = biological target: HLA-A*03:01; experiment: as above; conditions: source organism: Brucella abortus
[7] = biological target: HLA-B*58:01; experiment: as above
[8] = biological target: HLA-A*31:01; experiment: as above
[9] = biological target: HLA-B*27:05; experiment: as above; conditions: source organism: Brucella abortus
[10] = biological target: HLA-B*40:01; experiment: as above; conditions: source organism: Brucella abortus
[11] = biological target: HLA-A*11:01; experiment: as above
[12] = biological target: HLA-A*26:03; experiment: as above
[13] = biological target: HLA-B*15:01; experiment: as above; conditions: source organism: Brucella abortus
[14] = biological target: HLA-B*57:01; experiment: as above
[15] = biological target: HLA-B*07:02; experiment: as above
[16] = biological target: HLA-A*68:02; experiment: as above; conditions: source organism: Brucella abortus
[17] = biological target: HLA-A*02:01; experiment: as above
[18] = biological target: HLA-B*46:01; experiment: as above; conditions: source organism: Brucella abortus
[19] = biological target: HLA-B*15:17; experiment: IEDB peptide-MHC binding, purified MHC/competitive/fluorescence; filed as Kd, often an IC50 or EC50 that approximates it; ≥ and ≤ were set here for values at or beyond the usual limits of such assays; conditions: source organism: Brucella abortus S19
[20] = biological target: HLA-A*26:02; experiment: as above
[21] = biological target: HLA-A*02:03; experiment: as above; conditions: source organism: Human immunodeficiency virus 1
[22] = biological target: HLA-A*68:02; experiment: as above
[23] = biological target: HLA-A*02:01; experiment: as above; conditions: source organism: Human immunodeficiency virus 1
[24] = biological target: HLA-A*02:06; experiment: as above
[25] = biological target: HLA-A*03:01; experiment: as above; conditions: source organism: Robiginitalea biformata HTCC2501
[26] = biological target: HLA-A*31:01; experiment: as above; conditions: source organism: Robiginitalea biformata HTCC2501
[27] = biological target: HLA-A*11:01; experiment: as above; conditions: source organism: Robiginitalea biformata HTCC2501
[28] = biological target: HLA-C*14:02; experiment: IEDB peptide-MHC binding, purified MHC/direct/fluorescence; filed as Kd, often an IC50 or EC50 that approximates it; ≥ and ≤ were set here for values at or beyond the usual limits of such assays
[29] = biological target: HLA-B*07:02; experiment: IEDB peptide-MHC binding, purified MHC/competitive/fluorescence; filed as Kd, often an IC50 or EC50 that approximates it; ≥ and ≤ were set here for values at or beyond the usual limits of such assays; conditions: source organism: Influenza A virus (A/Memphis/1/1978(H1N1))
[30] = biological target: HLA-C*15:02; experiment: IEDB peptide-MHC binding, purified MHC/direct/fluorescence; filed as Kd, often an IC50 or EC50 that approximates it; ≥ and ≤ were set here for values at or beyond the usual limits of such assays; conditions: source organism: Homo sapiens
[31] = biological target: HLA-A*01:01; experiment: IEDB peptide-MHC binding, purified MHC/competitive/fluorescence; filed as Kd, often an IC50 or EC50 that approximates it; ≥ and ≤ were set here for values at or beyond the usual limits of such assays; conditions: source organism: Homo sapiens
[32] = biological target: HLA-A*29:02; experiment: as above; conditions: source organism: Homo sapiens
[33] = biological target: HLA-A*69:01; experiment: IEDB peptide-MHC binding, purified MHC/direct/fluorescence; filed as Kd, often an IC50 or EC50 that approximates it; ≥ and ≤ were set here for values at or beyond the usual limits of such assays; conditions: source organism: Camelpox virus M-96
[34] = biological target: HLA-B*08:02; experiment: as above; conditions: source organism: Variola virus
[35] = biological target: HLA-A*24:03; experiment: as above; conditions: source organism: Camelpox virus M-96
[36] = biological target: HLA-B*15:17; experiment: as above; conditions: source organism: Camelpox virus M-96
[37] = biological target: HLA-B*15:01; experiment: IEDB peptide-MHC binding, purified MHC/competitive/fluorescence; filed as Kd, often an IC50 or EC50 that approximates it; ≥ and ≤ were set here for values at or beyond the usual limits of such assays; conditions: source organism: Vaccinia virus WR
[38] = biological target: HLA-B*39:01; experiment: as above; conditions: source organism: Vaccinia virus WR
[39] = biological target: HLA-B*18:01; experiment: as above; conditions: source organism: Vaccinia virus WR
[40] = biological target: HLA-B*08:01; experiment: as above; conditions: source organism: Vaccinia virus WR
[41] = biological target: HLA-C*03:03; experiment: IEDB peptide-MHC binding, purified MHC/direct/fluorescence; filed as Kd, often an IC50 or EC50 that approximates it; ≥ and ≤ were set here for values at or beyond the usual limits of such assays; conditions: source organism: Mycobacterium tuberculosis C
[42] = biological target: HLA-C*07:02; experiment: as above; conditions: source organism: Mycobacterium tuberculosis C
[43] = biological target: HLA-B*46:01; experiment: IEDB peptide-MHC binding, purified MHC/competitive/fluorescence; filed as Kd, often an IC50 or EC50 that approximates it; ≥ and ≤ were set here for values at or beyond the usual limits of such assays; conditions: source organism: Mycobacterium tuberculosis C
[44] = source organism: West Nile virus
[45] = source organism: Brucella abortus
[46] = source organism: Human immunodeficiency virus 1
[47] = source organism: Camelpox virus M-96
[48] = source organism: Vaccinia virus WR

Q: Which Kd [1] does the source give for LTKEEFTRY here?
A: The Kd was 0.544 µM.

Q: And the Kd [2, 44]?
A: The Kd was 1.15 µM.

Q: And the Kd [3, 44]?
A: The Kd was 0.28 µM.

Q: And the Kd [4, 44]?
A: The Kd was 1.08 µM.

Q: What does the source list for RFRCVGPAP?
A: Kd [5]: ≥ 20 µM; Kd [6]: ≥ 20 µM; Kd [7, 45]: ≥ 20 µM; Kd [8, 45]: ≥ 20 µM; Kd [9]: ≥ 20 µM; Kd [10]: ≥ 20 µM; Kd [11, 45]: ≥ 20 µM; Kd [2, 45]: ≥ 20 µM; Kd ([12]; source organism: Brucella suis 1330): ≥ 20 µM; Kd [13]: ≥ 20 µM; Kd [14, 45]: ≥ 20 µM; Kd [15, 45]: ≥ 20 µM; Kd [16]: ≥ 20 µM; Kd [17, 45]: ≥ 20 µM; Kd [18]: ≥ 20 µM; Kd [19]: ≥ 20 µM; Kd ([20]; source organism: Brucella abortus S19): ≥ 20 µM

Q: With EELKSLFNTV as the sequence, how does the Kd [21] read?
A: Its Kd is ≥ 20 µM.

Q: And the Kd [22, 46]?
A: The Kd was 0.326 µM.

Q: What about the Kd [23] of the same sequence?
A: Its Kd is 1.67 µM.

Q: What about the Kd [20, 46] of the same sequence?
A: Its Kd is 1.08 µM.

Q: And the Kd [24, 46]?
A: Its Kd is 0.515 µM.

Q: PLAKGLFHK was tested. Which Kd [25] did it give?
A: The Kd was 6.78 µM.

Q: And the Kd [26]?
A: The Kd was ≥ 20 µM.

Q: And the Kd [27]?
A: The Kd was 2.38 µM.

Q: How did the Kd ([28]; source organism: Mycobacterium tuberculosis CDC1551) turn out when VVAANRSAF was run?
A: The Kd was 0.103 µM.

Q: ATPENAAAL was tested. Which Kd ([28]; source organism: Mycobacterium tuberculosis variant bovis BCG str. Pasteur 1173P2) did it give?
A: Its Kd is 0.177 µM.

Q: Which Kd [29] does the source give for DPLVVAASI here?
A: The Kd was ≥ 20 µM.

Q: Which results are given for HMMAVTLFY?
A: Kd [30]: 4.72 µM; Kd ([28]; source organism: Homo sapiens): 0.516 µM; Kd [31]: 0.0574 µM; Kd [32]: 0.0002 µM

Q: EYYFRNEVF was tested. Which Kd [7, 47] did it give?
A: Its Kd is ≥ 20 µM.

Q: And the Kd [8, 47]?
A: Its Kd is ≥ 20 µM.

Q: And the Kd [11, 47]?
A: Its Kd is ≥ 20 µM.

Q: And the Kd [2, 47]?
A: The Kd was ≥ 20 µM.

Q: And the Kd ([12]; source organism: Variola virus)?
A: Its Kd is ≥ 20 µM.

Q: What about the Kd [33] of the same sequence?
A: Its Kd is ≥ 20 µM.

Q: And the Kd [14, 47]?
A: Its Kd is ≥ 20 µM.

Q: And the Kd [34]?
A: The Kd was ≥ 20 µM.

Q: What about the Kd [35] of the same sequence?
A: The Kd was 0.195 µM.

Q: What about the Kd [15, 47] of the same sequence?
A: Its Kd is ≥ 20 µM.

Q: And the Kd [36]?
A: Its Kd is ≥ 20 µM.

Q: What about the Kd [17, 47] of the same sequence?
A: The Kd was ≥ 20 µM.

Q: What about the Kd ([4]; source organism: Variola virus) of the same sequence?
A: Its Kd is ≥ 20 µM.

Q: And the Kd [37]?
A: The Kd was 4.38 µM.

Q: And the Kd [38]?
A: The Kd was ≥ 20 µM.

Q: What about the Kd [22, 48] of the same sequence?
A: Its Kd is 3.39 µM.

Q: What about the Kd [39] of the same sequence?
A: Its Kd is 0.0078 µM.

Q: What about the Kd [20, 48] of the same sequence?
A: The Kd was 3.49 µM.

Q: And the Kd [40]?
A: Its Kd is ≥ 20 µM.

Q: What about the Kd [24, 48] of the same sequence?
A: The Kd was 0.153 µM.

Q: How did the Kd [41] turn out when YVFYDGPPF was run?
A: Its Kd is 0.01 µM.

Q: What about the Kd ([3]; source organism: Mycobacterium tuberculosis str. Haarlem) of the same sequence?
A: Its Kd is 0.011 µM.

Q: What about the Kd [42] of the same sequence?
A: Its Kd is 0.021 µM.

Q: And the Kd [43]?
A: Its Kd is 0.125 µM.
